# Laboratory results taken from paper PMC5040827.
# Biological target: PGT121
# Experiment: SPR
# Conditions: average of two or three experiments
row,Substance,Kd [nM]
1,BG505 T332N gp120 5MUT (V134Y; N136P; I138L; D140N; one further mutation not printed),5.7

# Biological target: GL_(CDR3rev4)
# Experiment: SPR
# Conditions: average of two or three experiments
row,Substance,Kd [nM]
1,BG505 T332N gp120 3MUT (T135A; T139I; one further mutation not printed),> 28000
2,BG505 T332N gp120 5MUT (V134Y; N136P; I138L; D140N; one further mutation not printed),> 34000
3,BG505 T332N gp120 7MUT (T135A; T139I; V134Y; N136P; I138L; D140N; one further mutation not printed),> 36000
4,BG505 T332N gp120 10MUT (T135A; T139I; V134Y; N136P; I138L; D140N; N137F; T320F; Q328M; one further mutation not printed),> 150000

# Biological target: MD39-10MUT
# Experiment: SPR
# Conditions: not given
row,Kd [nM],Substance
1,6,PGDM1400
2,0.8,PGT121
3,3,PGT128
4,35,PGT151
5,142,VRC01
